Source: publication PMC4505066 (2015)
Positions count from the first letter of the chain named. Several values for one entry are separate records, joined by “and”; a condition that tells them apart may be missing. Identical values can stand only once. Like-named read-outs stand apart in the source and are kept apart here. No end group written: not given here.

T1: HDAC4 catalytic domain H675A
T1 chain: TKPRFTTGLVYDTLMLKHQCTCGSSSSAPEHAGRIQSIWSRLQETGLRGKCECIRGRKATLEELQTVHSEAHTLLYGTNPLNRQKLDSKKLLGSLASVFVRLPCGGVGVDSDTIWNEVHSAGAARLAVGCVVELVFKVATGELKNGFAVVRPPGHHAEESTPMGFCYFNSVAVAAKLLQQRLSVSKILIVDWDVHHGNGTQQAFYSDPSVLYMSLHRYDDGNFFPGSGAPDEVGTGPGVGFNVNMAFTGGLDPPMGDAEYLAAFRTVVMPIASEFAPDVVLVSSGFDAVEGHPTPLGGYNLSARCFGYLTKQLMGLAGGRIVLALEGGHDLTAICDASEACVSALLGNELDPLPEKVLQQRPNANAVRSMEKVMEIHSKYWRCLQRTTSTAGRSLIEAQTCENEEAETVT

T2: HDAC4 catalytic domain C667A
T2 chain: T1 chain with C20A, A28H

T3: HDAC4 catalytic domain C751A
T3 chain: T1 chain with A28H, C104A

T4: HDAC7 catalytic domain
T4 chain: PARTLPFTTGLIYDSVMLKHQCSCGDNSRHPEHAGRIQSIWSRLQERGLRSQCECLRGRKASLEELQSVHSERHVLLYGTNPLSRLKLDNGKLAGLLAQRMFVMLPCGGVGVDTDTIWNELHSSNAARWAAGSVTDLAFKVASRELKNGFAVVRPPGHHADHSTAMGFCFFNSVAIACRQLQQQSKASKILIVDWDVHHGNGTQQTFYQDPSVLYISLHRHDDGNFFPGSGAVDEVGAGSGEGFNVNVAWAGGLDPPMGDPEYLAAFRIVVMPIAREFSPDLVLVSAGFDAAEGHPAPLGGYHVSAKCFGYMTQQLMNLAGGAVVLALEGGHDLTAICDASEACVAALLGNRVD

T5: HDAC5 catalytic domain
T5 chain: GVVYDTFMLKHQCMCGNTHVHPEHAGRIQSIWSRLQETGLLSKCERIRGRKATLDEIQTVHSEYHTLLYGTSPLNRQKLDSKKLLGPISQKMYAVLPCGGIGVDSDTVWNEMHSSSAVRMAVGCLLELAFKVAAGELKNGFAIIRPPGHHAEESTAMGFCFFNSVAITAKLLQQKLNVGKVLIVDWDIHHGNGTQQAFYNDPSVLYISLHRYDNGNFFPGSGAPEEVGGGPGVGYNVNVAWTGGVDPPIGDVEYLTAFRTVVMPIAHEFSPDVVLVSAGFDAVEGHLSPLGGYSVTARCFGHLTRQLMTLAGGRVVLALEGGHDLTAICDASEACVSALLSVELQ

T6: HDAC9 catalytic domain
T6 chain: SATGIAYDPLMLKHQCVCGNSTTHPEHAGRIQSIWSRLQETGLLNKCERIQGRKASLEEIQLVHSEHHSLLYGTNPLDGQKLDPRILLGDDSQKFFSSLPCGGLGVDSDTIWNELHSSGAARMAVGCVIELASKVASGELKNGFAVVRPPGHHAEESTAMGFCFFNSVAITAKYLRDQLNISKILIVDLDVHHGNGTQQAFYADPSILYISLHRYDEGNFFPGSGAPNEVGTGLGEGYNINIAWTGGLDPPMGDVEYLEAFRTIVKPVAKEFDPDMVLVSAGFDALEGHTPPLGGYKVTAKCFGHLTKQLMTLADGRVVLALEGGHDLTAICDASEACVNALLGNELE

T7: full-length HDAC8 (UniProt Q9BY41 1-377)
T7 chain: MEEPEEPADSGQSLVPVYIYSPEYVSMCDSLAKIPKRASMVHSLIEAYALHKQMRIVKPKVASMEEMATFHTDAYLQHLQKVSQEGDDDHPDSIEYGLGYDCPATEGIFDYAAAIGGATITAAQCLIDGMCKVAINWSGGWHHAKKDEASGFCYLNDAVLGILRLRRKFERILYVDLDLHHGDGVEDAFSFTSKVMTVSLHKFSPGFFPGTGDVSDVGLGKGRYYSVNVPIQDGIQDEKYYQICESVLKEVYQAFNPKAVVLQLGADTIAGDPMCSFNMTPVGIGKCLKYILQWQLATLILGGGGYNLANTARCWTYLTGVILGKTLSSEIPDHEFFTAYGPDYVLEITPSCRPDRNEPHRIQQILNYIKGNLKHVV

B1: wild type GSI motif peptide (CPRPLKEGSITQGTPLKYDTG), SMRT amino acids 1450-1469 with an amino-terminal cysteine (peptide)
peptide: C(BODIPY‑TMR)PRPLKEGSITQGTPLKYDTG
B2: HDAC4 catalytic domain, wild type (domain or fragment)
chain: T1 chain with A28H

Assays:
[1] = molecular target: T1, HDAC4 catalytic domain H675A; assay: FP
[2] = molecular target: B2; assay: FP
[3] = molecular target: T2, HDAC4 catalytic domain C667A; assay: FP
[4] = molecular target: T3, HDAC4 catalytic domain C751A; assay: FP
[5] = molecular target: HDAC4 catalytic domain L728A (UniProt P56524 648-1033, L728A); assay: FP
[6] = molecular target: B2; assay: FP
[7] = molecular target: T4, HDAC7 catalytic domain; assay: FP
[8] = molecular target: T5, HDAC5 catalytic domain; assay: FP
[9] = molecular target: T6, HDAC9 catalytic domain; assay: FP
[10] = molecular target: T7, full-length HDAC8; assay: FP
[11] = molecular target: T8, GSI motif peptide with a mutation to Thr-4 of the motif (UniProt Q9Y618, BODIPY-TMR coupled to the N-terminal cysteine); assay: FP; T4A peptide
[12] = molecular target: T8, GSI motif peptide with a mutation to …; assay: FP; T4V peptide
[13] = molecular target: GSI motif peptide with a mutation to Pro-8 of the motif (UniProt Q9Y618, BODIPY-TMR coupled to the N-terminal cysteine); assay: FP; P8A peptide
[14] = molecular target: T9, GSI motif peptide with a mutation to Gln-5 of the motif (UniProt Q9Y618, BODIPY-TMR coupled to the N-terminal cysteine); assay: FP; Q5E peptide
[15] = molecular target: T9, GSI motif peptide with a mutation to …; assay: FP; Q5A peptide

Chain of HDAC4 catalytic domain L728A (P56524 648-1033 L728A): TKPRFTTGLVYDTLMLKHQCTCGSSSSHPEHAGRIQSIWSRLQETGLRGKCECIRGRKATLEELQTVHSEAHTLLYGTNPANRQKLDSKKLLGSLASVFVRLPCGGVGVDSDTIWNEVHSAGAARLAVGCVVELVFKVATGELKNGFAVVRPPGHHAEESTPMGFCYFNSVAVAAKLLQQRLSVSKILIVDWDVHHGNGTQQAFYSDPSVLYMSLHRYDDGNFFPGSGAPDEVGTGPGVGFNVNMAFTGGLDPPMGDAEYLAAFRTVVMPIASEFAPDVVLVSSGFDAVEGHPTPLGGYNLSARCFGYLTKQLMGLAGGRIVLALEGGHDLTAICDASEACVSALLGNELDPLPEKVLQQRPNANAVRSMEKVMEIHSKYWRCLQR

| Kd [1] | Kd [2] | Kd [3] | Kd [4] | Kd [5] | Kd [6] | Kd [7] | Kd [8] | Kd [9] | Kd [10] | Kd [11] | Kd [12] | Kd [13] | Kd [14] | Kd [15] | Binder |
| --- | --- | --- | --- | --- | --- | --- | --- | --- | --- | --- | --- | --- | --- | --- | --- |
| > 1000 µM | 5.6 µM | > 1000 µM | > 1000 µM | 4.59 µM | 5.74 µM and 6.5 µM | 4.44 µM | 4.24 µM | 8.34 µM | > 1000 µM | – | – | – | – | – | B1 |
| – | – | – | – | – | – | – | – | – | – | 14.4 µM | 16.9 µM | 47 µM | 17.7 µM | 5.47 µM | B2 |
